Test in all cases: EMSA
Background: A gel shift assay detects complexes by their altered migration in electrophoresis.

The target of data set [1] is T1, CREB (purified) (UniProt P16220 1-327).
Data set [2] addresses hnRNP K (purified);CREB (purified) (;, UniProt P61978;P16220 1-463;1-327, |).
The target of data set [3] is T1, CREB (purified). This is another data set of the same source.

Where two headings read alike, the source gives them in different places.

T1 sequence (P16220 whole entry): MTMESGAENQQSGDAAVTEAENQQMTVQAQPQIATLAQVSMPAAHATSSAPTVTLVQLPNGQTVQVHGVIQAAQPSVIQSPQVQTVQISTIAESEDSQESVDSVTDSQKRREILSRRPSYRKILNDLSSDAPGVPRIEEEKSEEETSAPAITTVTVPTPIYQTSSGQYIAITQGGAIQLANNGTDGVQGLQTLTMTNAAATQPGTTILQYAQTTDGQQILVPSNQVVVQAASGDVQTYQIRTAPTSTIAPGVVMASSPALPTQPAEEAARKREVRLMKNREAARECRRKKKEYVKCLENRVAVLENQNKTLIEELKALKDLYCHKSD
Chain of hnRNP K (purified);CREB (purified) (P16220 whole entry, chain 2 of 2, other chains not shown): as the sequence (P16220 whole entry) above

B1: CRE mutant duplex (EMSA) (dsDNA)
DNA 1: GCAGGAGGTAGGAGGTGGGGGACCCAGAGGGGCTTGTCATCAGGCCTGGCC
DNA 2: GGCCAGGCCTGATGACAAGCCCCTCTGGGTCCCCCACCTCCTACCTCCTGC
B1: the binding result in the data set with CREB (purified) [1] is “binds”.

B2: Th GC-R1/CRE duplex WT (EMSA) (dsDNA)
DNA 1: GCAGGAGGTAGGAGGTGGGGGACCCAGAGGGGCTTTGACGTCAGCCTGGCC
DNA 2: GGCCAGGCTGACGTCAAAGCCCCTCTGGGTCCCCCACCTCCTACCTCCTGC
Take B2: the binding result (in data set [2]; with CREB (purified) [3]) was “binds” each time.
